Data as given in publication doi:10.1101/2024.02.23.581811 (bioRxiv, 2024).
Where a chain is given by its changes, count along the chain named. Values belong to the binder of their own block, whether it stands above or below them.

Target: β2-adrenergic receptor (Homo sapiens (Human)., UniProt P07550)
Test: linear dichroism

binding result: binds
B1: NB80-eGFP-HRas (VHH)
VHH: QVQLQESGGGLVQAGGSLRLSCAASGSIFSINTMGWYRQAPGKQRELVAAIHSGGSTNYANSVKGRFTISRDNAANTVYLQMNSLKPEDTAVYYCNVKDYGAVLYEYDYWGQGTQVTVSS

binding result: binds
B2: NB80Lite-eGFP-HRas (VHH)
VHH: B1 VHH with H52S, S56G, T57S, N58A
